Assays:
[1] = biological target: Thiomicrospira Cas6-RT-Cas1 fusion protein (Thiomicrospira); test: cryo-EM structure; 50 uM Cas6-RT-Cas1, 50 uM Cas2 and 12.5 uM half-site DNA substrate dialysed into 10 mM HEPES pH 7.5, 5 mM EDTA, 500 mM KCl, 0.5 mM TCEP, 0.5% glycerol; purified over Superose 6 Increase; single particle cryo-EM; no density seen for the DNA
[2] = biological target: Thiomicrospira Cas2 (Thiomicrospira); test: as above
[3] = biological target: Thiomicrospira Cas6-RT-Cas1 RT-K574A mutant (Thiomicrospira)

Thiomicrospira Cas6-RT-Cas1 fusion protein (enzyme)
stoichiometry N [1]: 2

Thiomicrospira Cas2 (natural protein)
stoichiometry N [2]: 2

Thiomicrospira Cas6-RT-Cas1 RT-K574A mutant (enzyme)
ligation of ssRNA protospacer into pCRISPR by the mutant Cas6-RT-Cas1—Cas2 complex relative to WT (RT-helix of one protomer with Cas1a of another) [3]: > 80 % reduction

Reference: article PMC8102632
